From the supplement of paper PMC10126150
± gives the standard deviation of the averaged measurements.

System: ATP
Assay: switch fluorescence ratio, 500 uM ATP over buffer (Cy3 cluster intensity, sum of 5 cycles each) (fold (ratio)); higher = stronger signal-on switching upon ATP binding; sequences stand for … in TCGTCGGCAGCGTCAGATGTGTATAAGAGACAGTTTTTTTTTTTTTTTTTTTTTTTTT…TC
Conditions: aptamer strand: ATP DNA aptamer (quencher-CACCTGGGGGAGTATTGCGGAGGAAGG + anchor), 100 nM annealed; ATP concentration: 500 uM
In short: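 Exposure to 500 uM ATP lasted 15 min at 22 °C before imaging, and a selection-buffer image was taken beforehand, for Cy3-labelled switching-strand clusters on a modified Illumina MiSeq flow-cell annealed to 100 nM quencher-labelled ATP aptamer. Five buffer/ATP cycles were run with NaOH stripping and re-annealing between them. The fluorescence ratio per cluster is summed target-cycle over summed buffer-cycle Cy3 intensity, averaged per switch-domain sequence. Clusters outside 100-1000 RFU were excluded.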

TAGTTTTTAT
switch fluorescence ratio: 1.02 ± 0.014

TATAAACAGG
switch fluorescence ratio: 0.998 ± 0.023

TATAAACGGG
switch fluorescence ratio: 1 ± 0.024

TATAAACTTT
switch fluorescence ratio: 1.01 ± 0.054

TATAAATTAG
switch fluorescence ratio: 0.972 ± 0.026

TATAACCAGG
switch fluorescence ratio: 1.33 ± 0.086

TATAAGAGAG
switch fluorescence ratio: 1 ± 0.024

TATAAGTATA
switch fluorescence ratio: 1.02 ± 0.011

TATAAGTGAG
switch fluorescence ratio: 1.02 ± 0.037

TATAATCATT
switch fluorescence ratio: 0.985 ± 0.028

TATAATCGAG
switch fluorescence ratio: 1 ± 0.014

TATAATGCTC
switch fluorescence ratio: 1.01 ± 0.014

TATAATGGTG
switch fluorescence ratio: 0.976 ± 0.021

TATACAATGG
switch fluorescence ratio: 1.01 ± 0.024

TATACAGGGG
switch fluorescence ratio: 1.2 ± 0.024

TATACATGAG
switch fluorescence ratio: 1.03 ± 0.021

TATACGACTC
switch fluorescence ratio: 1.09 ± 0.068

TATACGTGGC
switch fluorescence ratio: 0.939 ± 0.03

TATACTATGG
switch fluorescence ratio: 1.01 ± 0.038

TATACTGGGA
switch fluorescence ratio: 0.995 ± 0.012

TATACTGGGG
switch fluorescence ratio: 1.03 ± 0.059

TATACTTTTT
switch fluorescence ratio: 1.01 ± 0.021

TATAGAAAGT
switch fluorescence ratio: 0.9981 ± 0.0066

TATAGAGGGA
switch fluorescence ratio: 0.988 ± 0.02

TATAGCCTCG
switch fluorescence ratio: 0.976 ± 0.017

TATAGGATT
switch fluorescence ratio: 0.986 ± 0.015

TATAGGCCGG
switch fluorescence ratio: 0.991 ± 0.02

TATAGGGAAT
switch fluorescence ratio: 0.98384 ± 3.5e-05

TATAGGGAGT
switch fluorescence ratio: 1.01 ± 0.014

TATAGGGCAT
switch fluorescence ratio: 1.01 ± 0.032

TATAGGGGGA
switch fluorescence ratio: 1.04 ± 0.024

TATAGGGGTC
switch fluorescence ratio: 0.968 ± 0.014

TATAGGGTTG
switch fluorescence ratio: 0.999 ± 0.033

TATAGTAACT
switch fluorescence ratio: 1.03 ± 0.041

TATAGTCATT
switch fluorescence ratio: 1.02 ± 0.022

TATAGTCGGG
switch fluorescence ratio: 0.98 ± 0.025

TATAGTGAGG
switch fluorescence ratio: 1.0603 ± 0.001

TATAGTGGGG
switch fluorescence ratio: 1.043 ± 0.0078

TATAGTGGGT
switch fluorescence ratio: 1.01 ± 0.067

TATAGTTTTG
switch fluorescence ratio: 0.996 ± 0.021

TATATAACGG
switch fluorescence ratio: 1.036 ± 0.01

TATATAGTCT
switch fluorescence ratio: 1.024 ± 0.0086

TATATATGAC
switch fluorescence ratio: 1.01 ± 0.022

TATATATGTA
switch fluorescence ratio: 1.01 ± 0.05

TATATATTTG
switch fluorescence ratio: 1.03 ± 0.029

TATATATTTT
switch fluorescence ratio: 1.01 ± 0.029

TATATGCTGT
switch fluorescence ratio: 0.98 ± 0.011

TATATGGCGA
switch fluorescence ratio: 0.995 ± 0.031

TATATTACGA
switch fluorescence ratio: 1.03 ± 0.013

TATATTATGC
switch fluorescence ratio: 1.02 ± 0.011

TATATTCTTT
switch fluorescence ratio: 1 ± 0.023

TATATTGCAT
switch fluorescence ratio: 1.01 ± 0.015

TATATTTACC
switch fluorescence ratio: 1.04 ± 0.044

TATATTTAGT
switch fluorescence ratio: 0.973 ± 0.028

TATCAAAAGA
switch fluorescence ratio: 1.03 ± 0.016

TATCAAATTA
switch fluorescence ratio: 1.03 ± 0.011

TATCAATTCG
switch fluorescence ratio: 0.997 ± 0.036

TATCACGCAT
switch fluorescence ratio: 1.36 ± 0.018

TATCAGACAG
switch fluorescence ratio: 1.011 ± 0.0095

TATCAGTAGG
switch fluorescence ratio: 0.981 ± 0.021

TATCCACATA
switch fluorescence ratio: 1.1 ± 0.013

TATCCAGGGG
switch fluorescence ratio: 2.063 ± 0.0021

TATCCAGTGG
switch fluorescence ratio: 1.01 ± 0.054

TATCCCGGCG
switch fluorescence ratio: 0.9977 ± 0.0082

TATCCGAGGT
switch fluorescence ratio: 1.16 ± 0.26

TATCCGGAAT
switch fluorescence ratio: 1.79 ± 0.76

TATCGCAATG
switch fluorescence ratio: 3.63 ± 0.32

TATCGGCGAG
switch fluorescence ratio: 1.02 ± 0.046

TATCGGGAGC
switch fluorescence ratio: 0.986 ± 0.026

TATCGGGATA
switch fluorescence ratio: 0.994 ± 0.021

TATCGTAGGC
switch fluorescence ratio: 0.9996 ± 0.00057

TATCGTCGGG
switch fluorescence ratio: 1.008 ± 0.0064

TATCTAAAGT
switch fluorescence ratio: 1.01 ± 0.029

TATCTAAATA
switch fluorescence ratio: 1.007 ± 0.007

TATCTAGGGC
switch fluorescence ratio: 1.025 ± 0.0042

TATCTAGGGG
switch fluorescence ratio: 0.981 ± 0.035

TATCTAGGTT
switch fluorescence ratio: 1 ± 0.02

TATCTATCCG
switch fluorescence ratio: 0.985 ± 0.039

TATCTATCTT
switch fluorescence ratio: 0.994 ± 0.0066

TATCTCAACG
switch fluorescence ratio: 1.045 ± 0.006

TATCTGGGGG
switch fluorescence ratio: 1.01 ± 0.055

TATCTGTATA
switch fluorescence ratio: 1.11 ± 0.17

TATCTTAAAT
switch fluorescence ratio: 0.997 ± 0.028

TATCTTGCAT
switch fluorescence ratio: 0.97 ± 0.048

TATCTTTGGG
switch fluorescence ratio: 0.981 ± 0.026

TATGAAAGTG
switch fluorescence ratio: 0.983 ± 0.035

TATGAAATAG
switch fluorescence ratio: 0.99 ± 0.034

TATGAAGGGG
switch fluorescence ratio: 1.22 ± 0.34

TATGAATTGG
switch fluorescence ratio: 1 ± 0.018

TATGACGTTA
switch fluorescence ratio: 1 ± 0.048

TATGAGATTA
switch fluorescence ratio: 0.9935 ± 0.004

TATGAGGAAC
switch fluorescence ratio: 1.09 ± 0.14

TATGAGGCTT
switch fluorescence ratio: 0.999 ± 0.028

TATGAGGGGT
switch fluorescence ratio: 1.13 ± 0.047

TATGATAGGC
switch fluorescence ratio: 0.953 ± 0.058

TATGATGTGC
switch fluorescence ratio: 0.969 ± 0.017

TATGATTTGT
switch fluorescence ratio: 1 ± 0.019

TATGATTTTG
switch fluorescence ratio: 0.993 ± 0.02

TATGCATTAA
switch fluorescence ratio: 1.01 ± 0.021

TATGCCGGGG
switch fluorescence ratio: 0.988 ± 0.057

TATGCGGGGC
switch fluorescence ratio: 1.1 ± 0.12

TATGCTAAGG
switch fluorescence ratio: 0.996 ± 0.025

TATGGACA
switch fluorescence ratio: 1.05 ± 0.01

TATGGACGTT
switch fluorescence ratio: 1.03 ± 0.053

TATGGAGGGC
switch fluorescence ratio: 1.06 ± 0.041

TATGGATCTT
switch fluorescence ratio: 0.983 ± 0.027

TATGGATGGG
switch fluorescence ratio: 0.961 ± 0.02

TATGGATTGG
switch fluorescence ratio: 0.977 ± 0.029

TATGGCATGG
switch fluorescence ratio: 1 ± 0.05

TATGGCCAGT
switch fluorescence ratio: 1.03 ± 0.033

TATGGCCGCC
switch fluorescence ratio: 1.01 ± 0.043

TATGGCGACA
switch fluorescence ratio: 1.01 ± 0.087

TATGGGAGGC
switch fluorescence ratio: 1.01 ± 0.059

TATGGGCACG
switch fluorescence ratio: 0.99 ± 0.024

TATGGGCCAG
switch fluorescence ratio: 0.996 ± 0.02

TATGGGGAGC
switch fluorescence ratio: 0.998 ± 0.044

TATGGGGAGT
switch fluorescence ratio: 0.981 ± 0.046

TATGGGGATT
switch fluorescence ratio: 0.991 ± 0.037

TATGGGGGTG
switch fluorescence ratio: 1.05 ± 0.043

TATGGGGTGG
switch fluorescence ratio: 1.01 ± 0.015

TATGGGGTTA
switch fluorescence ratio: 0.981 ± 0.028

TATGGGGTTG
switch fluorescence ratio: 1.03 ± 0.12

TATGGGTACT
switch fluorescence ratio: 1 ± 0.027

TATGGGTTTG
switch fluorescence ratio: 0.994 ± 0.04

TATGGTATCT
switch fluorescence ratio: 0.994 ± 0.024

TATGGTCACC
switch fluorescence ratio: 1.03 ± 0.03

TATGGTCATA
switch fluorescence ratio: 0.999 ± 0.032

TATGGTCATT
switch fluorescence ratio: 0.99 ± 0.015

TATGGTCCTG
switch fluorescence ratio: 0.962 ± 0.023

TATGGTTG
switch fluorescence ratio: 0.99 ± 0.057

TATGGTTTCC
switch fluorescence ratio: 1.03 ± 0.05

TATGTAAATT
switch fluorescence ratio: 1.01 ± 0.012

TATGTAATGG
switch fluorescence ratio: 1.02 ± 0.036

TATGTAGAGA
switch fluorescence ratio: 0.99 ± 0.023

TATGTATGC
switch fluorescence ratio: 1.03 ± 0.014

TATGTCATCG
switch fluorescence ratio: 1.01 ± 0.028

TATGTCGCCA
switch fluorescence ratio: 1.01 ± 0.024

TATGTGTGCG
switch fluorescence ratio: 1.02 ± 0.017

TATGTGTTTT
switch fluorescence ratio: 1.031 ± 0.0034

TATGTTACGG
switch fluorescence ratio: 1.03 ± 0.0075

TATGTTGGGT
switch fluorescence ratio: 1.02 ± 0.037

TATGTTGTTT
switch fluorescence ratio: 1.04 ± 0.023

TATGTTTGGC
switch fluorescence ratio: 1 ± 0.04

TATGTTTTAT
switch fluorescence ratio: 1.02 ± 0.048

TATTAAGAAT
switch fluorescence ratio: 0.987 ± 0.0043

TATTAAGGAT
switch fluorescence ratio: 1 ± 0.031

TATTAATAGA
switch fluorescence ratio: 0.999 ± 0.061

TATTAATCTT
switch fluorescence ratio: 1.02 ± 0.014

TATTACACTG
switch fluorescence ratio: 1.03 ± 0.033

TATTACGGCG
switch fluorescence ratio: 1.02 ± 0.03

TATTACTATT
switch fluorescence ratio: 0.999 ± 0.023

TATTAGAGCG
switch fluorescence ratio: 1.02 ± 0.025

TATTAGGGGT
switch fluorescence ratio: 1.01 ± 0.023

TATTAGTGGC
switch fluorescence ratio: 0.9403 ± 0.0088

TATTAGTTTT
switch fluorescence ratio: 1.02 ± 0.047

TATTATAAAT
switch fluorescence ratio: 0.98 ± 0.016

TATTATAGAT
switch fluorescence ratio: 0.99997 ± 0.00069

TATTATCGGA
switch fluorescence ratio: 0.996 ± 0.048

TATTATGGCG
switch fluorescence ratio: 1.04 ± 0.014

TATTATGGGA
switch fluorescence ratio: 0.991 ± 0.035

TATTATGGGT
switch fluorescence ratio: 0.982 ± 0.036

TATTATTGGA
switch fluorescence ratio: 1 ± 0.042

TATTATTGGG
switch fluorescence ratio: 1 ± 0.0054

TATTCCTTGG
switch fluorescence ratio: 0.966 ± 0.012

TATTCCTTTT
switch fluorescence ratio: 1.01 ± 0.013

TATTCGGAGC
switch fluorescence ratio: 1.01 ± 0.037

TATTCGGGGT
switch fluorescence ratio: 0.99 ± 0.028

TATTGACAGA
switch fluorescence ratio: 1.022 ± 0.0053

TATTGACATT
switch fluorescence ratio: 1.016 ± 0.0071

TATTGAGACC
switch fluorescence ratio: 1.03 ± 0.036

TATTGAGATG
switch fluorescence ratio: 0.998 ± 0.046

TATTGATTGG
switch fluorescence ratio: 0.9977 ± 0.0062

TATTGCCAGG
switch fluorescence ratio: 1.1 ± 0.036

TATTGCCGCA
switch fluorescence ratio: 1.057 ± 0.0085

TATTGCTATT
switch fluorescence ratio: 0.972 ± 0.017

TATTGCTTTC
switch fluorescence ratio: 1.03 ± 0.018

TATTGGAGTT
switch fluorescence ratio: 1.04 ± 0.015

TATTGGATGC
switch fluorescence ratio: 0.97 ± 0.032

TATTGGATTA
switch fluorescence ratio: 1.01 ± 0.026

TATTGGCTTG
switch fluorescence ratio: 0.985 ± 0.013

TATTGGGAAT
switch fluorescence ratio: 0.985 ± 0.01

TATTGGGCCC
switch fluorescence ratio: 0.9954 ± 0.0019

TATTGTCGTT
switch fluorescence ratio: 1.02 ± 0.029

TATTGTGATA
switch fluorescence ratio: 0.991 ± 0.039

TATTGTGCGG
switch fluorescence ratio: 1.01 ± 0.037

TATTGTGGAG
switch fluorescence ratio: 0.983 ± 0.024

TATTGTGGTT
switch fluorescence ratio: 1 ± 0.031

TATTGTTAAA
switch fluorescence ratio: 0.987 ± 0.029

TATTGTTATG
switch fluorescence ratio: 1 ± 0.028

TATTGTTTGA
switch fluorescence ratio: 0.9578 ± 0.0067

TATTTAAAGC
switch fluorescence ratio: 0.9768 ± 0.0092

TATTTAAAGT
switch fluorescence ratio: 1.02 ± 0.049

TATTTAAT
switch fluorescence ratio: 1.07 ± 0.11

TATTTAATGA
switch fluorescence ratio: 1.54 ± 0.81

TATTTACCGC
switch fluorescence ratio: 1.13 ± 0.034

TATTTAGGTT
switch fluorescence ratio: 1.006 ± 0.006

TATTTAGTCG
switch fluorescence ratio: 0.975 ± 0.019

TATTTATACA
switch fluorescence ratio: 1.029 ± 0.0054

TATTTATTGC
switch fluorescence ratio: 1.01 ± 0.037

TATTTATTTG
switch fluorescence ratio: 1.02 ± 0.045
